From the supplement of paper PMC10724198
± gives the standard deviation of the averaged measurements.

Tests used:
Saccharomyces cerevisiae [1] = experiment: protein stability index of tFT-peptide fusion (C-terminal peptide) (PSI (0-1 scale)); higher = more stable (slower turnover)
Experimental: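 MPS profiling in S. cerevisiae of the tFT-X12 degron library: putative degron peptides plus stable controls, 12 aa, fused to the C-terminus of a sfGFP-mCherry timer. Cells are FACS-sorted into 8 mCherry/sfGFP bins and deep-sequenced. PSI runs from 0 (unstable) to 1 (stable). Backgrounds are wild type, das1Δ and doa10Δ at 30 °C, and wild type, das1Δ, cdc34-1 and cdc53-1 at 37 °C; 2-3 technical replicates each.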

Saccharomyces cerevisiae [2] = experiment: as above; details: genetic background: wild type; temperature: 30 C
[3] = genetic background: cdc34-1, temperature: 37 C
[4] = genetic background: cdc53-1, temperature: 37 C
[5] = genetic background: das1 deletion, temperature: 30 C
[6] = genetic background: das1 deletion, temperature: 37 C
[7] = genetic background: doa10 deletion, temperature: 30 C
[8] = genetic background: wild type, temperature: 30 C
[9] = genetic background: wild type, temperature: 37 C
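Further: PSI is a weighted mean of sequencing reads over stability bins, variants kept only with over 10 reads, mCherry proximal and sfGFP distal, peptide attached via GGGS linker.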

Sequence	protein stability index (Saccharomyces cerevisiae [1]; [3])	protein stability index (Saccharomyces cerevisiae [1]; [4])	protein stability index (Saccharomyces cerevisiae [1]; [5])	protein stability index (Saccharomyces cerevisiae [1]; [6])	protein stability index (Saccharomyces cerevisiae [1]; [7])	protein stability index (Saccharomyces cerevisiae [1]; [8])	protein stability index (Saccharomyces cerevisiae [1]; [9])	protein stability index (Saccharomyces cerevisiae [2])
DFVYFPPIPVSS	0.303 ± 0.0088	0.352 ± 0.039	0.253 ± 0.051	0.462 ± 0.011	0.218 ± 0.0036	0.266 ± 0.032	0.409 ± 0.006	0.337 ± 0.018
LLMLWWARVFSG	0.296 ± 0.032	0.395 ± 0.045	0.298 ± 0.015	0.408 ± 0.0072	0.209 ± 0.016	0.243 ± 0.036	0.35 ± 0.0075	0.329 ± 0.0066
FYTYILTVAEAL	0.518 ± 0.041	0.583 ± 0.04	0.457 ± 0.021	0.531 ± 0.013	0.454 ± 0.0094	0.455 ± 0.014	0.5273 ± 0.0011	0.482 ± 0.015
SVGCCLLCFFVL	0.523 ± 0.012	0.563 ± 0.012	0.41 ± 0.03	0.5645 ± 0.0043	0.339 ± 0.029	0.351 ± 0.029	0.5031 ± 0.0027	0.425 ± 0.028
VFSFWVLCEVSV	0.0333 ± 0.0097	0.0546 ± 0.015	0.0315 ± 0.0099	0.0841 ± 0.013	0.0219 ± 0.0031	0.0221 ± 0.0057	0.072 ± 0.02	0.04525 ± 0.0004
WVWCVCVVVWCG	0.111 ± 0.0046	0.191 ± 0.051	0.153 ± 0.026	0.256 ± 0.013	0.135 ± 0.0037	0.14 ± 0.02	0.195 ± 0.026	0.25425 ± 0.00016
WAIVVLVCFLRL	0.283 ± 0.011	0.299 ± 0.0052	0.277 ± 0.022	0.388 ± 0.017	0.332 ± 0.024	0.277 ± 0.019	0.362 ± 0.011	0.343 ± 0.017
WCGSWGVWMRLG	0.296 ± 0.08	0.456 ± 0.015	0.534 ± 0.03	0.646 ± 0.02	0.0974 ± 0.008	0.0842 ± 0.0092	0.112 ± 0.029	0.122 ± 0.031
VYLVLRCGSVLV	0.565 ± 0.015	0.56 ± 0.032	0.406 ± 0.021	0.597 ± 0.011	0.379 ± 0.018	0.399 ± 0.016	0.586 ± 0.02	0.443 ± 0.054
QCKHIVRKIKLH	0.426 ± 0.089	0.61 ± 0.11	0.617 ± 0.014	0.737 ± 0.018	0.117 ± 0.016	0.0952 ± 0.034	0.147 ± 0.014	0.186 ± 0.025
PASYPPFIYLSI	0.306 ± 0.012	0.288 ± 0.018	0.419 ± 0.032	0.496 ± 0.01	0.654 ± 0.018	0.418 ± 0.026	0.4461 ± 0.00056	0.434 ± 0.077
VFFIFFFAFLFF	0.294 ± 0.035	0.289 ± 0.0075	0.335 ± 0.052	0.41 ± 0.0072	0.393 ± 0.01	0.322 ± 0.014	0.39 ± 0.03	0.329 ± 0.051
GLPGYAWGRSGG	0.6759 ± 0.0045	0.788 ± 0.02	0.743 ± 0.037	0.782 ± 0.012	0.776 ± 0.037	0.775 ± 0.029	0.7221 ± 0.0024	0.586 ± 0.22
FFCSLIISRFLL	0.542 ± 0.035	0.608 ± 0.014	0.511 ± 0.018	0.62 ± 0.02	0.139 ± 0.012	0.168 ± 0.033	0.299 ± 0.0054	0.214 ± 0.04
LDFPPLRLILRL	0.601 ± 0.019	0.609 ± 0.0072	0.584 ± 0.035	0.6464 ± 0.0014	0.658 ± 0.017	0.538 ± 0.049	0.6071 ± 0.0026	0.538 ± 0.064
ICFPLQIFRILV	0.408 ± 0.013	0.46 ± 0.019	0.348 ± 0.021	0.4919 ± 0.0042	0.211 ± 0.014	0.246 ± 0.019	0.345 ± 0.006	0.3549 ± 0.0027
QARQLEMYMVVF	0.638 ± 0.066	0.532 ± 0.12	0.403 ± 0.041	0.579 ± 0.02	0.379 ± 0.015	0.418 ± 0.013	0.544 ± 0.0069	0.432 ± 0.0045
CLVKIVIFFLFS	0.22 ± 0.011	0.326 ± 0.016	0.217 ± 0.037	0.371 ± 0.0075	0.191 ± 0.012	0.211 ± 0.024	0.34 ± 0.019	0.349 ± 0.035
CPPPCPLYMLLC	0.506 ± 0.03	0.614 ± 0.041	0.536 ± 0.03	0.6121 ± 0.0031	0.163 ± 0.017	0.17 ± 0.024	0.171 ± 0.013	0.264 ± 0.025
WFVFVFCSPRSS	0.547 ± 0.048	0.618 ± 0.0098	0.4 ± 0.03	0.65 ± 0.027	0.394 ± 0.012	0.406 ± 0.017	0.568 ± 0.0097	0.5 ± 0.029
